Experiments:
Format in all cases: cell-based, human
HIF-1 alpha = assay: Cotransfection reporter assay (HIF-RE2-luc) with HIF-1 alpha in HEK/293 cells; conditions: for reduction of transactivation activity of cotransfected HIF-1 alpha on hypoxia responsive reporter gene construct: HEK/293, wild type HIF-1 alpha, equal amounts of each plasmid transfected; for sensitivity of double mutant HIF-1 alpha (P402/577G) activity to cotransfected hydroxylase: HEK/293, double mutant, constitutively active; for sensitivity of HIF-1 alpha P402G mutant to cotransfected hydroxylase, versus wild type HIF-1 alpha: HEK/293, glycine substituted for P402; for sensitivity of HIF-1 alpha P577 mutant to cotransfected hydroxylase: HEK/293, mutation of P577
Protocol: (§1) HIF-prolyl hydroxylase activity of PH-2 was examined in a cellular co-transfection assay in HEK/293 cells. In a typical experiment, cells were seeded at a density of 2×10^4 cells per well in 96-well tissue culture plates (Greiner, Germany) and grown in DMEM F12 tissue culture medium (Gibco) supplemented with 10% fetal calf serum (PAA) and antibiotics for 24 hours at 37° C. in a humidified tissue culture incubator (Heraeus, Germany) in a 5% CO2 atmosphere. Plasmid DNA was introduced into the HEK/293 cells by use of Lipofectamin reagent (Gibco) according to the manufacturer's instructions.
(§2) The following expression plasmids were used in transfection experiments. pCDNA3 cloning vectors were obtained from Invitrogen: • HIF-1alpha pcDNA3 containing the coding sequence of mouse hypoxia inducible factor-1 alpha (Gene bank accession number: NM_010431). • HIF-1 alpha P402G pcDNA3 containing the coding sequence of mouse hypoxia inducible factor-1 alpha in which the HIF proline hydroxylase sensitive proline residue at position 402 was replaced with glycine by site-directed mutagenesis using QuickChange™ XL Site-Directed Mutagenesis Kit, Stratagene. • HIF-1 alpha P577G pcDNA3 containing the coding sequence of mouse hypoxia inducible factor-1alpha in which the HIF proline hydroxylase sensitive proline residue at position 577 (the ortholog of P564 of human HIF) was replaced with glycine by site-directed mutagenesis using QuickChange™ XL Site-Directed Mutagenesis Kit, Stratagene. • HIF-1 alpha P402/577G pcDNA3 containing the coding sequence of mouse hypoxia inducible factor-1alpha in which both HIF proline hydroxylase sensitive proline residues at positions 402 and 577 were replaced with glycine by site-directed mutagenesis using QuickChange™ XL Site-Directed Mutagenesis Kit, Stratagene. • HIF-2 alpha pcDNA3 containing the coding sequence of mouse hypoxia inducible factor-2 alpha (Gene bank accession number: AF045160). • HIF-RE2-luc, HIF reporter construct (constructed in pGL3, Promega) consisting of a minimal promoter containing a tandem of hypoxia responsible elements (FIG. 5, bold underlined) and the CMV promoter TATA box (FIG. 5, underlined) upstream of the firefly luciferase gene. • pRLTK (Promega) containing the coding sequence of renilla luciferase, used as transfection standard. • PH-alpha(I) pcDNA3 containing the coding sequence of human prolyl 4-hydroxylase alpha (I) (Gene bank accession number: U14620). • EGLN3 pcDNA3 containing the coding sequence of a recently identified human HIF-prolyl-hydroxylase (Epstein et al., Cell 107, 43-54, 2001; Bruick & McKnight, Science 294, 1337-40, 2001; gene bank accession number: XM—052824). • PH-2 pcDNA3 containing the coding sequence from SEQ ID NO:3.
(§3) In a typical experiment, 30 ng of HIF-RE2 pGL3 luciferase reporter plasmid and 10 ng pRLTK internal standard were cotransfected with prolyl-4 hydroxylase and HIF pCDNA3 expression plasmids. The amount of transfected pCDNA3 plasmids was kept constant at 60 ng by filling up with pCDNA3 empty cloning vector. Twenty-four hours later, luciferase activity was measured in a lumibox equipped with a Hamamatsu camera (Hamamatsu Photonics, Japan) using after lysis of cells in luciferase buffer.
A luciferase reporter construct in which a tandem of hypoxia responsive elements linked to a minimal promoter drive firefly luciferase was cotransfected with HIF-1 alpha and HIF-2 alpha, respectively, and with the candidate HIF prolyl 4-hydroxylases EGLN3 and PH-2, respectively.

HIF-2 alpha protein = assay: Western blot analysis of HIF-2 alpha protein in cotransfected HEK/293 cells; conditions: HEK/293, HIF-2 alpha specific polyclonal antibody
Protocol: as §1, with “instructions. […]” for “instructions.”

HIF-2 alpha = assay: Cotransfection reporter assay (HIF-RE2-luc) with HIF-2 alpha in HEK/293 cells; conditions: for activity of HIF-2 alpha on reporter: HEK/293, hydroxylase and HIF-2 alpha cotransfected in a ratio 10:1; for activity on HIF-2 alpha compared with activity on HIF-1 alpha: HEK/293 cotransfection reporter assay
Protocol: as §1, §2, §3

[1] = HEK/293, equal amounts of each plasmid transfected

Molecule	reduction of transactivation activity of cotransfected HIF-1 alpha on hypoxia responsive reporter gene construct (HIF-1 alpha)	sensitivity of double mutant HIF-1 alpha (P402/577G) activity to cotransfected hydroxylase (HIF-1 alpha)	sensitivity of HIF-1 alpha P402G mutant to cotransfected hydroxylase, versus wild type HIF-1 alpha (HIF-1 alpha)	sensitivity of HIF-1 alpha P577 mutant to cotransfected hydroxylase (HIF-1 alpha)	HIF-2 alpha protein by Western blot (HIF-2 alpha protein)	activity of HIF-2 alpha on the hypoxia responsive reporter gene construct (HIF-2 alpha; [1])	activity on HIF-2 alpha relative to EGLN3 (HIF-2 alpha; [1])	activity of HIF-2 alpha on reporter (HIF-2 alpha)	activity on HIF-2 alpha compared with activity on HIF-1 alpha (HIF-2 alpha)
PH-alpha(I): human collagen prolyl 4-hydroxylase alpha (I) (Gene bank accession number U14620), expressed from pcDNA3 (protein) HPGFFTSIGQMTDLIHTEKDLVTSLKDYIKAEEDKLEQIKKWAEKLDRLTSTATKDPEGFVGHPVNAFKLMKRLNTEWSELENLVLKDMSDGFISNLTIQRQYFPNDEDQVGAAKALLRLQDTYNLDTDTISKGNLPGVKHKSFLTAEDCFELGKVAYTEADYYHTELWMEQALRQLDEGEISTIDKVSVLDYLSYAVYQQGDLDKALLLTKKLLELDPEHQRANGNLKYFEYIMAKEKDVNKSASDDQSDQKTTPKKKGVAVDYLPERQKYEMLCRGEGIKMTPRRQKKLFCRYHDGNRNPKFILAPAKQEDEWDKPRIIRFHDIISDAEIEIVKDLAKPRLSRATVHDPETGKLTTAQYRVSKSAWLSGYENPVVSRINMRIQDLTGLDVSTAEELQVANYGVGGQYEPHFDFARKDEPDAFKELGTGNRIATWLFYMSDVSAGGATVFPEVGASVWPKKGTAVFWYNLFASGEGDYSTRHAACPVLVGNKWVSNKWLHERGQEFRRPCTLSELE	did not reduce								
PH-2: novel human prolyl 4-hydroxylase, SEQ ID NO:4; expressed from PH-2 pcDNA3 containing the coding sequence from SEQ ID NO:3 (protein, listed as Homo sapiens) MAAAAVTGQRPETAAAEEASRPQWAPPDHCQAQAAAGLGDGEDAPVRPLCKPRGICSRAYFLVLMVFVHLYLGNVLALLLFVHYSNGDESSDPGPQHRAQGPGPEPTLGPLTRLEGIKVGHERKVQLVTDRDHFIRTLSLKPLLFEIPGFLTDEECRLIIHLAQMKGLQRSQILPTEEYEEAMSTMQVSQLDLFRLLDQNRDGHLQLREVLAQTRLGNGWWMTPESIQEMYAAIKADPDADGVLSLQEFSNMDLRDFHKYMRSHKAESSELVRNSHHTWLYQGEGAHHIMRAIRQRVLRLTRLSPEIVELSEPLQVVRYGEGGHYHAHVDSGPVYPETICSHTKLVANESVPFETSCRYMTVLFYLNNVTGGGETVFPVADNRTYDEMSLIQDDVDLRDTRRHCDKGNLRVKPQQGTAVFWYNYLPDGQGWVGDVDDYSLHGGCLVTRGTKWIANNWINVDPSRARQALFQQEMARLAREGGTDSQPEWALDRAYRDARVEL	~80%	almost completely resistant	equally sensitive	less sensitive	disappearance	reduced	by a factor two less active	completely abolished	less active
EGLN3: recently identified human HIF-prolyl-hydroxylase (gene bank accession number XM—052824), expressed from EGLN3 pcDNA3 (protein) MPLGHIMRLDLEKIALEYIVPCLHEVGFCYLDNFLGEVVGDCVLERVKQLHCTGALRDGQLAGPRAGVSKRHLRGDQITWIGGNEEGCEAISFLLSLIDRLVLYCGSRLGKYYVKERSKAMVACYPGNGTGYVRHVDNPNGDGRCITCIYYLNKNWDAKLHGGILRIFPEGKSFIADVEPIFDRLLFFWSDRRNPHEVQPSYATRYAMTVWYFDAEERAEAKKKFRNLTRKTESALTED	about 90%	almost completely resistant	equally sensitive	less sensitive	disappearance	reduced		completely abolished	less active

From patent publication US20060110769A1, “Regulation of novel human prolyl 4-hydroxylases” (Bayer Aktiengesellschaft, priority 2001, published 2006)
